Test results taken from article PMC2965261 (Nucleic Acids Research, 2010).

Target: T1, Candida albicans Ino4 (C. albicans, UniProt A0A1D8PH18 1-130)
T1 sequence: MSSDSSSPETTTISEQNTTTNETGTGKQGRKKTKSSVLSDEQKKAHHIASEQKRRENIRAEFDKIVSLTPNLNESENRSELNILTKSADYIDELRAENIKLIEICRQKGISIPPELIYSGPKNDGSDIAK
Test: two-hybrid

B1: Candida albicans Ino2 (natural protein)
chain: MSSTVTQTMNNNPTEKVTFTASNSQADFDLLDIFSNDMDFEQAYDMYNNLQEKNAMGSFEQLQKVQALNQQYVSNLQPPSSAQFPDQFAYERAQILNGEYNKQSGLMNDATNKNYSFNDDTFDQFFTNTESNALEKFLDNLANPVASVNPLQFYNNTRTSVPDEDVDLSFELHTMKVPQQFKPRSQSLEHNPPLQQKVRFTEEEHAALKQELTEAFAHPCTQLPSPSTTEYKPKPTTPKVVKQFVTPPNSGDESRKRNSDIESDESEEETTPTTKKRKRTSSKPLLSVEQKRLNHSHSEQKRRQLCKFAYQRCLELIIDLDAFNKLPELNESERKSKRARVNKDGLPNLSKHNALIRISNEMILIKSMNDSLKKLIENR
galactosidase activity, fold of the background activity: 2.5 fold
